Several values for one entry are separate records, joined by “and”; a condition that tells them apart may be missing. Equal values may be shown once. Entries after “also recorded” stand apart in the source; their conditions may differ. Read-outs that look alike come from different tables or passages of the source.
Tests used:
[1] = mouse, in vivo, iv, 86.2 umol/kg
Description: Time evolution of plasma concentration (A, B) and of cardiac tissue concentration (C, D) of Doxorubicin or PhAc-ALGP-Dox and its metabolites after i.v. bolus injection to OF-1 female wild type mice at the dose of 86.2 μmol/kg. Results represent the mean concentration±SD (n=3).
Pharmacokinetic tissue distribution studies were performed using OF-1 mice. […] At different time points after drug administration (5 min, 30 min, 1 h, 4 h, 7 h, 16 h and 24 h) 3 mice per group were sacrificed by cervical dislocation and blood and heart tissue were collected. Hearts were incised and rinsed carefully in phosphate buffer saline (to eliminate blood in the cardiac cavities), dried on paper and frozen in liquid nitrogen. They were stored until analysis. Blood samples were centrifuged (10 min, 2000 g, 4° C.) to separate the plasma fraction, which was stored for analysis. The hearts were homogenized with an Ultraturrax homogenizer in 1.5 mL water. The protein concentration was measured using the microBCA protein assay (Pierce). The drug tissue quantification was made by HPLC after extraction: 150 μL of acetonitrile was added to the 50 μL samples. Samples were vortexed and centrifuged for 10 min at 13 000 rpm at room temperature. Supernatant was collected. Samples were buffered by addition of 200 mM formiate buffer pH 4.5 (1 V sample supernatant+3 V buffer) before HPLC analysis (fluo detection ex=235 nm em=560 nm).

CD26 = CD26 (Homo sapiens, UniProt P27487); assay: Reactivation assay with purified CD26; type: biochemical; details: CD26 1 μg/ml
Description: (§1) TOP (recombinant human thimet oligopeptidase, R&D systems, Ref 3439-ZN) was diluted at 10 nM in a solution of 50 mM Tris-HCl pH 7.4/0.5M NaCl/0.1M DTT. CD26 and FAP were diluted at 1 μg/mL in a Tris-HCl pH 7.5 buffer. Reactions were initiated by addition of 50 μM of each compound to enzymes solutions (1 V enzyme solution+1 V 100 μM drug solution). Samples were incubated for 0, 1, or 3 hours at 37° C. in a water bath in the presence of purified enzymes. Fifty μL of sample were collected at each time point and processed as described above for human plasma. Activation of Suc-βALAL-dox was tested in parallel as a reference.

[2] = In vitro cytotoxicity on Cor.At cardiomyocytes (neutral red uptake); type: cell-based, mouse; details: mouse, 20 μg/ml
Description: FIG. 5. In vitro cellular toxicity of PhAc-ALGP-Dox and Doxorubicin on Cor.At® cells (mouse embryonic stem cell derived cardiomyocytes). As non-specific control, the test was also performed on inactivated mouse embryonic fibroblasts (MEF). Cells were cultured for 48 h in the presence of drugs and a neutral red uptake test was performed to determine cell viability. Results represent the cytotoxicity curves. The IC50 values were calculated from the cytotoxicity curves using the Prism GraphPad software 5.0.
The in vitro cardiotoxicity test was carried out in a relevant and predictive in vitro model for cardiac safety screening in early lead optimization using mouse embryonic stem cell derived cardiomyocytes (Cor.At®, Axiogenesis (Germany)). Cor.At® cardiomyocytes provide a standardized, homogenous and reproducible cell system for the in vitro classification of a compound's cardio-cytotoxic potential. After incubation with test compounds, the neutral red uptake test was used to determine effects which directly affect the viability and integrity of cardiac cells when compared to a non-specific reference cell type, e.g. mouse fibroblasts (MEF).

[3] = In vivo toxicity after single iv bolus injection (body weight); design: species or system OF-1 mice
Description: FIG. 1. Effect of PhAc-peptide-Dox conjugates on the body weight of OF-1 normal mice (n=4). […] Results represent the mean body weight evolution.
The in vivo toxicity was evaluated by monitoring body weight.

[4] = Stability in citrated human blood; details: 5 hours incubation at 37° C. in citrated human blood, 50 μM
[5] = Stability in citrated human plasma; details: 5 hours incubation at 37° C. in citrated human plasma (pH7), 50 μM
Description: The drug conjugates (50 μM) were mixed with human plasma and incubated for 5 hours at 37° C. in a water bath. […] Supernatant was collected.

[6] = tested on: LS-174T tumor cell secreted peptidases; assay: Reactivation assay in LS174T tumor cell conditioned medium; type: biochemical, human; details: 5 h at 37° C.
Description: Sub-confluent cultures of LS-174T tumor cells were washed twice with a saline phosphate buffer solution, and fresh culture medium (DMEM-F12 without phenol red) containing 0.02% bovine serum albumin is added (100 μl/cm^2). After 24 hours incubation, the conditioned medium is collected, centrifuged for 10 minutes at 300 g, buffered with 1 M Tris-HCl, pH 7.4 (1 volume of buffer+19 volumes of medium) and concentrated 20 times by […] (cutoff threshold of 10 kDa).
Drug compounds (50 μM) were incubated for 0, 1, 3 or 5 hours at 37° C. in the presence of freshly prepared LS174T tumor cell conditioned medium. Fifty μL of sample were collected at each time point and processed as described above for human plasma.

[7] = target: T1, CD10 (recombinant human neprilysin) (Homo sapiens, UniProt P08473); assay: Reactivation assay with purified CD10; type: biochemical; details: 3 h at 37° C., 50 μM compound
T1 construct: purchased R&D systems 1182-ZN
T1 sequence (P08473 52-750 limits assumed): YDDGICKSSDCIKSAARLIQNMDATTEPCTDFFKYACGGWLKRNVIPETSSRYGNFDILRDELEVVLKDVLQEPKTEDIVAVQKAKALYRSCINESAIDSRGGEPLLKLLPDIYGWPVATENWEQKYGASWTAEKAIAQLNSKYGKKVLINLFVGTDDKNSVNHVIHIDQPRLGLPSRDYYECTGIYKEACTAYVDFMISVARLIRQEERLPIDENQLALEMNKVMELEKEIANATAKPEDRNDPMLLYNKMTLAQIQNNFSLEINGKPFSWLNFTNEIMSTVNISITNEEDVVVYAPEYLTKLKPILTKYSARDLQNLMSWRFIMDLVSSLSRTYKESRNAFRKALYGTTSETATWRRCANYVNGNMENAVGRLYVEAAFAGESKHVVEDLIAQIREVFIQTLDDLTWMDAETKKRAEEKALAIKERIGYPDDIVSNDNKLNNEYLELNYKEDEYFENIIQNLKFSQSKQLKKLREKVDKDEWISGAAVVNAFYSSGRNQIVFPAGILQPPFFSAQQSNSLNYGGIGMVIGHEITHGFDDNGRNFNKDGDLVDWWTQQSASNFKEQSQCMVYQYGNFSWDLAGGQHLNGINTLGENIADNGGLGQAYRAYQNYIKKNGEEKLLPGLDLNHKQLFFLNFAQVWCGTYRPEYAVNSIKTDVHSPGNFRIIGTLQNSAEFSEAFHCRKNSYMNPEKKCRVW

[8] = target: T2, TOP (recombinant human thimet oligopeptidase) (Homo sapiens, UniProt P52888); assay: Reactivation assay with purified TOP; type: biochemical; details: 3 h at 37° C., 50 μM compound
T2 construct: purchased R&D systems 3439-ZN
T2 sequence (P52888 whole entry): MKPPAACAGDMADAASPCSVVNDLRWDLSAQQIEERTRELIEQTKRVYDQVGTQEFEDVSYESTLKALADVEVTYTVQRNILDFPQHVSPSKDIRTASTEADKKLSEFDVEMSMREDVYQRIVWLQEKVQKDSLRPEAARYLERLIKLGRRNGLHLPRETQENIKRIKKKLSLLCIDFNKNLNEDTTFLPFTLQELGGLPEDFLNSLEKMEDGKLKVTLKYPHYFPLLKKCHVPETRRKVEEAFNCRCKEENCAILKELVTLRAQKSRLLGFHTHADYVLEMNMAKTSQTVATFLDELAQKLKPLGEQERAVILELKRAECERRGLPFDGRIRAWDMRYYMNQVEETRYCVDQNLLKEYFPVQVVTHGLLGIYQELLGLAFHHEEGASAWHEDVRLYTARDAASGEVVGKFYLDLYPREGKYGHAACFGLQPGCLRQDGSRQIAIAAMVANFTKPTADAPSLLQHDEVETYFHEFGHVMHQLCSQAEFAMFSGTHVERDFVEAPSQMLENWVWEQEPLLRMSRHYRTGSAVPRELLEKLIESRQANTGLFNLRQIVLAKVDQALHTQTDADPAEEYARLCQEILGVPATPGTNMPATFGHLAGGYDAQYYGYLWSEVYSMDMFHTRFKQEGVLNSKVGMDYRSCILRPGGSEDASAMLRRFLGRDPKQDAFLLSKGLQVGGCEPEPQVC
Description: as §1

[9] = type: in vivo, CD1 mice
Text: FIG. 13. Evaluation of chronic cardiotoxicity of PhAc-ALGP-Dox in CD-1 mice. Animals received 10 intravenous injections (arrows) of saline (●); Doxorubicin 6.9 μmol/kg (▪) or of PhAc-ALGP-Dox at 13.8 (▴), 27.6 (×), 55.2 (*) and 82.8 μmol/kg (◯). Results represent the evolution of the average relative body weight (%). †=dead mouse.
Chronic cardiac toxicity of PhAc-ALGP-Dox in mice was morphologically evaluated as previously described by Bertazzoli et al. 1979 (Cancer Treat Rep 63, 1877-1883). CD1 female white mice were treated by bolus intravenous injection in the tail vein at 10 μL/g (6 mice per group). Compounds were injected twice a week, ten times. Animals were not treated for 2 weeks between the first four injections and the last six injections to allow recovery of the bone marrow depression. The treatment dose-levels of PhAc-ALGP-Dox were: 13.8; 27.6; 55.2; and 82.8 μmol/kg. Doxorubicin 6.9 μmol/kg was used as a reference. Three weeks after the last injection, animals were deeply anaesthetized by intraperitoneal injection of nembutal (50 mg/kg) and exsanguinated. The hearts were carefully collected, rinsed in NaCl 9°/oo and fixed in a 10% formaldehyde solution. Samples were processed for histopathological analysis (CITox Lab, France). The heart was trimmed, embedded in paraffin wax, sectioned at a thickness of 4 microns and stained with hematoxylin-eosin before microscopic evaluation. During the course of the experiment, body weight was controlled before each injection or once a week.

[10] = 13.8-82.8 μmol/kg, 10 iv injections

CD26, sequence (P27487 whole entry): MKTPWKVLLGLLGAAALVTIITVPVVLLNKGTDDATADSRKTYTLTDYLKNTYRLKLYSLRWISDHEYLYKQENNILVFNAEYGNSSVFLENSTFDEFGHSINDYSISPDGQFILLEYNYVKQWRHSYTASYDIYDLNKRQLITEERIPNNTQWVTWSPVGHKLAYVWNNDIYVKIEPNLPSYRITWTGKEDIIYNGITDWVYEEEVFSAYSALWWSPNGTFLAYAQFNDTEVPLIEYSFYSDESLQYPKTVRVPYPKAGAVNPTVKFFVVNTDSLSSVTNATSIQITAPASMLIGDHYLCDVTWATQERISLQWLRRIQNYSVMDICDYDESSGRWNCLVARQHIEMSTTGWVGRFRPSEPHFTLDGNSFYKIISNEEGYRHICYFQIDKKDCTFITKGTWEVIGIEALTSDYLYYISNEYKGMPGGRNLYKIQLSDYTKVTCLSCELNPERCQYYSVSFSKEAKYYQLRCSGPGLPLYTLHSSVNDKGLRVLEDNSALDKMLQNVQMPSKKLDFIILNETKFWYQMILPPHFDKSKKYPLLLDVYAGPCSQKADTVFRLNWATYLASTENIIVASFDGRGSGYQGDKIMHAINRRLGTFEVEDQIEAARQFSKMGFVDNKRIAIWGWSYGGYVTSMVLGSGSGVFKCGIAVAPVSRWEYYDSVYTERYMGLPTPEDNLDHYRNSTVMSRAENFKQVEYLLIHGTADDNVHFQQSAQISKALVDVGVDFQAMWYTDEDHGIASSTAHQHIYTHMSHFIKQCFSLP

## COc1cccc2c1C(=O)c1c(O)c3c(c(O)c1C2=O)C[C@@](O)(C(=O)CO)C[C@@H]3O[C@H]1C[C@H](N)[C@H](O)[C@H](C)O1 [Doxorubicin, reference compound]
[1]
  Heart AUC of Dox: 5863 pmol · h/mg protein

## COc1cccc2c1C(=O)c1c(O)c3c(c(O)c1C2=O)CC(O)(C(=O)CO)CC3OC1CC(NC(=O)C2CCCN2C(=O)CNC(=O)C(CC(C)C)NC(=O)C(C)NC(=O)CP(=O)(O)O)C(O)C(C)O1 (centres unmarked) [PhAc-ALGP-Dox, PhAc-ALGP-doxorubicin]
CD26
  hydrolysis by CD26 (in words): Neither CD26 nor FAP hydrolized; also recorded: did not hydrolyze
[2]
  viability at 48 h, 20 µg/mL: 37%
[3]; 240 μmol/kg single iv, day 28
  maximum body weight loss: 15%
[3]; 320 μmol/kg single iv
  body weight loss (in words): significant body weight loss
  mortality: one mouse was found dead at day 12
[3]; 240 and 320 μmol/kg single iv
  tolerability (in words): well tolerated
[3]; OF-1, mouse, in vivo, single iv bolus injection, read-out: maximum tolerated dose (MTD)
  MTD: 240 to 320 µmol/kg
[3]; after one intravenous injection
  times less toxic than Dox: at least 6 times
[4]
  % metabolites released: Dox: 6%
  % metabolites released: GP-dox: 3%
  % metabolites released: P-Dox: 0%
  total % metabolites: 9%
[5]
  % metabolites released: Dox: 2%
  % metabolites released: GP-dox: 0%
  % metabolites released: P-Dox: 0%
  total % metabolites: 2%
[6]; 50 μM compound
  % Metabolites released after 5 h (LS174T CM20xcc): 81 ± 31%
[6]; metabolite Dox
  % Dox detected after 5 h (LS174T conditioned medium): 24%
[6]; metabolite GP-Dox
  % GP-Dox detected after 5 h (LS174T conditioned medium): 56%
[7]
  % Metabolites released after 3 h (CD10 10 nM): 25% and 25 ± 4%
[8]
  % Metabolites released after 3 h (TOP 5 nM): 72% and 72 ± 14%
[9]; [10]
  body weight loss (in words): No body weight loss
  pathologic microscopic findings in the heart (in words): did not induce any pathologic microscopic findings in the heart at any dose levels
[9]; mouse, in vivo, iv
  Atrophy; myofiber: 0
  Atrophy; myofiber Grade 1: 0
  Atrophy; myofiber Grade 2: 0
  Degeneration/necrosis; myocardium: 0
  Degeneration/necrosis; myocardium Grade 1: 0
  Enlarg. Nuclei; myofib.: 0
  Enlarg. Nuclei; myofib. Grade 1: 0
  Infiltration; mix. Cells: 0
  Infiltration; mix. Cells Grade 1: 0
  Thrombus; atrium: 0
  Thrombus; atrium Grade 1: 0
  Vacuolation; myofib.: 0
  Vacuolation; myofib. Grade 1: 0
  Vacuolation; myofib. Grade 2: 0
